{
  "source": "patent US11260100B2",
  "about": "“Compositions targeting the interaction domain between p27Kip1 and Brk and methods of use thereof to inhibit p27 Y phosphorylation and cdk4 activity” (The Research Foundation for the State University of New York, priority 2014, dated 2022)",
  "molecules": {"B1": {"name": "Alt-Brk: alternative splice variant of Brk (SEQ ID NO: 17), 15 KD protein with SH3 domain, lacks kinase domain (protein, listed as Homo sapiens)", "chain": "MVSRDQAHLGPKYVGLWDFKSRTDEELSFRAGDVFHVARKEEQWWWATLLDEAGGAVAQGYVPHNYLAERETVESEPAGHAGCAALQDLAACRGPAAPERGGVLPQPARACELPQGPEPVPRPAAGRALPEARA"}},
  "key": {"MCF7-ALT cells": {"system": "MCF7-ALT cells", "experiment": "Long-term proliferation arrest at IC100 (FIG. 15A)", "type": "cell-based, human", "conditions": "IC100 Palbociclib, doxycycline induced ALT, replenished every two days", "experimental": "FIGS. 15A-15C: ALT and PD treatment increases senescence, a clinical goal. FIG. 15A: MCF7-ALT cells were treated with IC100 concentration of Palbociclib (PD) or doxycycline to induce ALT. Drugs were replenished every two days and proliferation was determined by cell counting as indicated. Proliferation rates were standardized to the rate of proliferation seen in DMSO treated cells (control). PD treated cells were arrested for 10 days, before escape (proliferation) was detected. ALT expressing cells were arrested for 18 days before escape (proliferation) was detected. ALT expressing and PD treated cells were arrested for 30 days, with no escape detected. […] Proliferation was assessed by counting. […] Viability was measured by trypan blue staining and the ALT expressing, PD treated cells that weren't growing were viable. […]\nMCF7-ALT cells were treated with a IC100 concentration of Palbociclib (PD) or doxycycline to induce ALT. Drugs were replenished every two days and proliferation was determined by cell counting as indicated. […] PD treated cells were arrested for 10 days, before escape (proliferation) was detected. ALT expressing cells were arrested for 18 days before escape (proliferation) was detected. ALT expressing and PD treated cells were arrested for 30 days, with no escape detected. […] Proliferation was assessed by counting. […]"}, "MCF7 breast cancer cells": {"system": "MCF7 breast cancer cells", "experiment": "Proliferation with ALT and Palbociclib at IC50 concentration (FIG. 9)", "type": "cell-based, human", "experimental": "FIGS. 9A-9B: AltBrk Synergizes with Palbociclib. ALT, Palbociclib, or Brk alone or in combination were added to or expressed in MCF7 breast cancer cells on day 2 post plating. Drugs were added at their IC50 concentration, based on previous results. ALT is expressed from an ALT-MCF7 tetracycline inducible cell line generated in the Blain lab. When tetracycline is added to the cell culture media, ALT is expressed in these cells. Vector: no tetracycline was added, so no ALT induction was detected. (FIG. 9A) Cells were harvested and counted every two days, as a measure of proliferation. Proliferation is plotted as a percentage relative to that seen in the DMSO treated control. Drugs and media were replaced every two days. (FIG. 9B) Viability was measured by trypan blue staining, and plotted relative to viability seen in the DMSO treated control.\nAdditional experiments were performed assessing activity of Brk in combination with Palbociclib. The data presented in FIGS. 9A and 9B reveal that Palbociclib and Brk inhibit proliferation for 2 days, and then resistance is observed (proliferation increases). Alt maintained arrest for roughly 10 days (50% inhibition of proliferation is detected). […] Alt-Brk/Palbociclib combination leads to a more durable cell cycle arrest. Mono therapy treated cells start to become resistant between day 8-10. […]"}, "cdk4": {"molecular_target": "T1, cdk4 (Homo sapiens, UniProt P11802)", "T1 construct": "added to or expressed in MCF7 breast cancer cells on day 2 post plating; endogenous in cells; host or cells: MCF7 (ALT-MCF7 tetracycline-inducible line)", "T1 sequence (P11802 2-303 limits assumed)": "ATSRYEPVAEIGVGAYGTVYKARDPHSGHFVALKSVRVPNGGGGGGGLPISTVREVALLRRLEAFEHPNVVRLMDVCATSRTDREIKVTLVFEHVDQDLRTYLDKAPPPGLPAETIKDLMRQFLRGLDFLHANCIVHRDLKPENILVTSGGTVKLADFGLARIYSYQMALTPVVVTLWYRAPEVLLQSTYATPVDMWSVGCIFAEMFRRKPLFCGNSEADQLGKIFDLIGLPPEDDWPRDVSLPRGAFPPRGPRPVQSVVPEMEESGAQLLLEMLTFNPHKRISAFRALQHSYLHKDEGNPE", "T1 sequence (P24385 whole entry partner)": "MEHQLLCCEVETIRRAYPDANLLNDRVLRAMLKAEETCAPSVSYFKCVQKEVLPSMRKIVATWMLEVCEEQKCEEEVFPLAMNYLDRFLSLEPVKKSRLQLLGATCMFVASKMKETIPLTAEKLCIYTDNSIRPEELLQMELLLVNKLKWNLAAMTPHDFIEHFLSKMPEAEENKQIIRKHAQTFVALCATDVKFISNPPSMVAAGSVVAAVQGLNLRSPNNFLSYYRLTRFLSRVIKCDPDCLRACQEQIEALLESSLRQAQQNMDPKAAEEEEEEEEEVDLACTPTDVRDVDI", "experiment": "Immunoblot of pRBser780 as measure of active cdk4 (FIG. 10)", "type": "cell-based", "conditions": "MCF7, drugs at IC50", "procedure": "ALT, Palbociclib alone or in combination were added to or expressed in MCF7 breast cancer cells on day 2 post plating. […] ALT is expressed from an ALT-MCF7 tetracycline inducible cell line generated in the Blain lab. When tetracycline is added to the cell culture media, ALT is expressed in these cells. Vector: no tetracycline was added, so no ALT induction was detected. Drugs and media were replaced every two days. Cells were harvested every two days, lysed and used in immunoblot analysis."}},
  "data": [
    {"molecule": "B1", "values": [
      {"measurement": "time arrested before escape (proliferation)", "setting": "MCF7-ALT cells", "result": 18, "unit": "days"},
      {"measurement": "duration of proliferation inhibition / arrest", "setting": "MCF7 breast cancer cells; drugs at IC50 concentration, replaced every two days", "result": "roughly 10 days"},
      {"measurement": "inhibition of proliferation", "setting": "MCF7 breast cancer cells; during arrest", "result": 50, "unit": "%"},
      {"measurement": "cdk4 activity (pRBser780)", "setting": "cdk4", "result": "inhibits cdk4"}
    ]}
  ]
}
